Assay results reported in patent US20160264648A1 (OSAKA UNIVERSITY, published 2016).

What was measured:
[1] = target: hemagglutinin (HA) of influenza A virus A/PR8/1934 (seasonal H1N1) (influenza A virus A/PR8/1934 (H1N1sea)) (UniProt P03452); assay: cell-based or functional assay
[2] = target: hemagglutinin (HA) of influenza A virus A/Turkey/Wisconsin/1/1966 (H9N2) (influenza A virus A/Turkey/Wisconsin/1/1966 (H9N2)) (UniProt P03457); assay: cell-based or functional assay
[3] = target: hemagglutinin (HA) of influenza A virus A/Suita/104/2011 (H1N1pdm) (influenza A virus A/Suita/104/2011 (H1N1pdm)); assay: cell-based or functional assay
[4] = target: hemagglutinin (HA) of influenza A virus A/Suita/117/2011 (H1N1pdm) (influenza A virus A/Suita/117/2011 (H1N1pdm)); assay: cell-based or functional assay
[5] = target: hemagglutinin (HA) of influenza A virus A/Osaka/168/2009 (H1N1pdm) (influenza A virus A/Osaka/168/2009 (H1N1pdm)); assay: cell-based or functional assay
[6] = target: hemagglutinin (HA) of influenza A virus A/Suita/105/2011 (H1N1pdm) (influenza A virus A/Suita/105/2011 (H1N1pdm)); assay: cell-based or functional assay
[7] = target: hemagglutinin (HA) of influenza A virus A/Brisbane/59/2007 (seasonal H1N1) (influenza A virus A/Brisbane/59/2007 (H1N1sea)); assay: cell-based or functional assay
[8] = target: hemagglutinin (HA) of influenza A virus A/Aichi/2/1968 (H3N2) (influenza A virus A/Aichi/2/1968 (H3N2), UniProt P03437 17-566); assay: IFA on virus-infected MDCK cells
[9] = target: hemagglutinin (HA) of influenza A virus A/PR8/1934 (seasonal H1N1) (influenza A virus A/PR8/1934 (H1N1sea), UniProt P03452 18-565); assay: cell-based or functional assay
[10] = target: hemagglutinin (HA) of influenza A virus A/Turkey/Wisconsin/1/1966 (H9N2) (influenza A virus …, UniProt P03457 19-560); assay: cell-based or functional assay
[11] = target: hemagglutinin (HA) of influenza A virus A/Chicken/Egypt/R1MD12-3/2008 (H5N1) (influenza A virus A/Chicken/Egypt/RIMD12-3/2008 (H5N1)); assay: cell-based or functional assay
[12] = target: hemagglutinin (HA) of influenza A virus A/Duck/Egypt/D1Br12/2007 (H5N1) (influenza A virus A/Duck/Egypt/D1Br12/2007 (H5N1)); assay: cell-based or functional assay

Row | Molecule | Neutralization activity (VN50 value µg/ml) [1] | Neutralization activity (VN50 value µg/ml) [2] | Neutralization activity (VN50 value µg/ml) [3] | Neutralization activity (VN50 value µg/ml) [4] | Neutralization activity (VN50 value µg/ml) [5] | Neutralization activity (VN50 value µg/ml) [6] | Neutralization activity (VN50 value µg/ml) [7] | binding result [8] | Neutralization activity (VN50 value µg/ml) [9] | Neutralization activity (VN50 value µg/ml) [10] | Neutralization activity (VN50 value µg/ml) [11] | Neutralization activity (VN50 value µg/ml) [12]
1 | mouse MAb C179 capable of exhibiting a broad reactivity with HAs belonging to group 1 (antibody) | 3.1 µg/mL | 5.53 µg/mL | 5.98 µg/mL | 5.73 µg/mL | 5.68 µg/mL | 3.11 µg/mL | 5.57 µg/mL |  |  |  |  | 
2 | human monoclonal antibody (HuMAb) 1H11 (antibody, V domains shown) VH: QVQLVQSGAEVKKPGSSVKVSCKSSGGNFNNYAVSWVRQAPGQGLEWMGGISPIFGSTNHAQKFQGRVTISADIFTNTAYMELSSLRSDDTAIYYCARGRGYYFYHAMDVWGQGSTVTVSS VL: QSALTQPASVSGSPGQSITISCTGTSSDVGGYNYVSWYQQHPGEAPKLMISDVSNRPSGVSNRFSGSKSGNTASLTISGLQAEDEADYYCTSYTSSNTLVFGGGTKLTVL |  |  | 11.3 µg/mL | 11.6 µg/mL | 0.78 µg/mL | 11.4 µg/mL | 2.89 µg/mL | no binding | 2.87 µg/mL | 11.8 µg/mL | 6.12 µg/mL | 6.08 µg/mL
3 | human monoclonal antibody (HuMAb) 2H5 (antibody, V domains shown) VH: QVQLVQSGAEVKKPGSSVKVSCKSSGGNFNNYAVSWVRQAPGQGLEWMGGISPIFGSTNHAQKFQGRVTISADIFTNTAYMELSSLRSDDTAIYYCARGRGYYFYHAMDVWGQGSTVTVSS VL: QSVLTQPPSVSAAPGQKVTISCSGSSSNIGHNFVSWYQQLPATAPKLLIYDTDKRPSGIPDRFSGSKSGTSATLGITGLQTGDEADYYCGTWDSSLSSVIFGGGTKLTVL |  |  | 6 µg/mL | 6.03 µg/mL | 1.51 µg/mL | 6.21 µg/mL | 5.53 µg/mL | no binding | 5.83 µg/mL | > 100 µg/mL | 11.7 µg/mL | 6.05 µg/mL
